# Values of other authors as cited in paper PMC11204982.
# Biological target: CD20 (Homo sapiens) (UniProt P11836)
# Sequence of UniProt P11836 (P11836 whole entry): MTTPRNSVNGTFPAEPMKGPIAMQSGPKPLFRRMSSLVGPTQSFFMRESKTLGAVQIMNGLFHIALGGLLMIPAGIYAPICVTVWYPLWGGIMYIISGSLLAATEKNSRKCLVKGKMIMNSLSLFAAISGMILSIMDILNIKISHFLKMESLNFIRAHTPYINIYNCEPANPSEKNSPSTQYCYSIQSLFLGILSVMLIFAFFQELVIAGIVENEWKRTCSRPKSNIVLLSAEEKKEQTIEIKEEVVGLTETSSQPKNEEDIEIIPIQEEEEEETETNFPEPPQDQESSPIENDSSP
substance,measurement,value
rituximab,Kd,5.2 nM
